In US8715959B2, “Substitution mutant receptors and their use in a nuclear receptor-based inducible gene expression system” (priority 2001, dated 2014):

System: CfEcR-DEF
Assay: GAL4/mutant CfEcR-DEF + VP16/LmUSP-EF GAL4-driven luciferase reporter transactivation in NIH3T3 cells
Assay type: cell-based, Choristoneura fumiferana
Conditions: for Fold increase over WT, 2.5 μM GS™-E: 2.5 μM GS™-E non-steroidal ligand; for Fold increase over WT, 2.5 μM PonA: 2.5 μM PonA steroidal ligand
Protocol: DNAs corresponding to the various switch constructs outlined in Example 1, specifically switches 1.1-1.13, were transfected into mouse NIH3T3 cells (ATCC) or L57 cells (Dr. Peter Cherbas; Indiana University) as follows. Standard methods for culture and maintenance of the cells were followed. […] Superfect™ (Qiagen Inc.) was used for 3T3 cells and Lipofectamine™ (LifeTechnologies) was used for L57 cells as the transfection reagents. For 12-well plates, 4 μl of Superfect™ or Lipofectamine™ was mixed with 100 μl of growth medium. One μg of reporter construct and 0.25 μg of each receptor construct of the receptor pair to be analyzed were added to the transfection mix. […] The cells were harvested and reporter activity was assayed.
Cells were harvested 40 hours after adding ligands. […] Twenty μl of lysate were assayed.
Briefly, Applicants mutated amino acid residues predicted to be critical for ecdysteroid binding into alanine and created GAL4/mutantCfEcR-DEF cDNA gene expression cassettes as described in Example 1 above using the Quikchange PCR-mediated site-directed mutagenesis kit (Stratagene, La Jolla, Calif.). The mutated and the WT cDNAs were tested in GAL4-driven luciferase reporter assays.
DNAs corresponding to the various switch constructs outlined in Example 1, specifically switches 1.1-1.2, were transfected into mouse NIH3T3 cells (ATCC) as follows. […] Two μl of Superfect™ was mixed with 100 μl of growth medium and 50 ng of either GAL4/wild-type EcR or Gal4/mutant EcR cassette, 50 ng of VP16/LmUSP-EF and 200 ng of pFRLuc were added to the transfection mix. […] The cells were harvested and reporter activity was assayed as described above.

[1] = NIH3T3 cells, relative to Gal4/wild-type CfEcR-DEF switch activity

Molecule | Fold increase over WT, 2.5 μM GS™-E [1] [fold] | Fold increase over WT, 2.5 μM PonA [1] [fold] | non-steroid activity (summary of Table 10) (GS™-E, CfEcR-DEF point mutants) | steroid binding activity (summary of Table 10) (PonA, CfEcR-DEF point mutants) | Fold increase over WT, 10 nM GS™-E (10 nM GS™-E non-steroidal ligand, NIH3T3 cells, relative to Gal4/wild-type CfEcR-DEF switch activity) [fold] | Fold increase over WT, 10 nM PonA (10 nM PonA steroidal ligand, NIH3T3 cells, relative to Gal4/wild-type CfEcR-DEF switch activity) [fold]
T58A: CfEcR-DEF LBD substitution mutant, Threonine (T) to Alanine (A) (protein, listed as Choristoneura fumiferana) LTANQQFLIARLIWYQDGYEQPSDEDLKRITQTWQQADDENEESDTPFRQITEMTILAVQLIVEFAKGLPGFAKISQPDQITLLKACSSEVMMLRVARRYDAASDSVLFANNQAYTRDNYRKAGMAYVIEDLLHFCRCMYSMALDNIHYALLTAVVIFSDRPGLEQPQLVEEIQRYYLNTLRIYILNQLSGSARSSVIYGKILSILSELRTLGMQNSNMCISLKLKNRKLPPFLEEIWDV | 0.8 | 0.008 | not significantly affected | essentially eliminated | – | –
V96T/V107I/R175E: CfEcR-DEF LBD triple mutant, V96T, V107I and R175E (protein, listed as Choristoneura fumiferana) LTANQQFLIARLIWYQDGYEQPSDEDLKRITQTWQQADDENEESDTPFRQITEMTILTVQLIVEFAKGLPGFAKISQPDQITLLKACSSEVMMLRTARRYDAASDSILFANNQAYTRDNYRKAGMAYVIEDLLHFCRCMYSMALDNIHYALLTAVVIFSDRPGLEQPQLVEEIQEYYLNTLRIYILNQLSGSARSSVIYGKILSILSELRTLGMQNSNMCISLKLKNRKLPPFLEEIWDV | – | – | – | – | 0.4 | 485.7
T52A: CfEcR-DEF LBD substitution mutant, Threonine (T) to Alanine (A) (protein, listed as Choristoneura fumiferana) LTANQQFLIARLIWYQDGYEQPSDEDLKRITQTWQQADDENEESDTPFRQIAEMTILTVQLIVEFAKGLPGFAKISQPDQITLLKACSSEVMMLRVARRYDAASDSVLFANNQAYTRDNYRKAGMAYVIEDLLHFCRCMYSMALDNIHYALLTAVVIFSDRPGLEQPQLVEEIQRYYLNTLRIYILNQLSGSARSSVIYGKILSILSELRTLGMQNSNMCISLKLKNRKLPPFLEEIWDV | 1.5 | 0.5 | – | – | – | –
T55A: CfEcR-DEF LBD substitution mutant, Threonine (T) to Alanine (A) (protein, listed as Choristoneura fumiferana) LTANQQFLIARLIWYQDGYEQPSDEDLKRITQTWQQADDENEESDTPFRQITEMAILTVQLIVEFAKGLPGFAKISQPDQITLLKACSSEVMMLRVARRYDAASDSVLFANNQAYTRDNYRKAGMAYVIEDLLHFCRCMYSMALDNIHYALLTAVVIFSDRPGLEQPQLVEEIQRYYLNTLRIYILNQLSGSARSSVIYGKILSILSELRTLGMQNSNMCISLKLKNRKLPPFLEEIWDV | 1.7 | 0.13 | – | – | – | –
T52L: CfEcR-DEF LBD substitution mutant, Threonine (T) to Leucine (L) (protein, listed as Choristoneura fumiferana) LTANQQFLIARLIWYQDGYEQPSDEDLKRITQTWQQADDENEESDTPFRQILEMTILTVQLIVEFAKGLPGFAKISQPDQITLLKACSSEVMMLRVARRYDAASDSVLFANNQAYTRDNYRKAGMAYVIEDLLHFCRCMYSMALDNIHYALLTAVVIFSDRPGLEQPQLVEEIQRYYLNTLRIYILNQLSGSARSSVIYGKILSILSELRTLGMQNSNMCISLKLKNRKLPPFLEEIWDV | 0.26 | 3.4 | – | – | – | –
V96A: CfEcR-DEF LBD substitution mutant, Valine (V) to Alanine (A) (protein, listed as Choristoneura fumiferana) LTANQQFLIARLIWYQDGYEQPSDEDLKRITQTWQQADDENEESDTPFRQITEMTILTVQLIVEFAKGLPGFAKISQPDQITLLKACSSEVMMLRAARRYDAASDSVLFANNQAYTRDNYRKAGMAYVIEDLLHFCRCMYSMALDNIHYALLTAVVIFSDRPGLEQPQLVEEIQRYYLNTLRIYILNQLSGSARSSVIYGKILSILSELRTLGMQNSNMCISLKLKNRKLPPFLEEIWDV | 0.35 | 408 | – | – | – | –
